Test results as given in patent publication US11360100B2, “Methods and compositions useful in detecting proteins” (OREGON HEALTH & SCIENCE UNIVERSITY, priority 2016, dated 2022).
“Also recorded” adds a separate entry of the source. AF647 = AlexaFluor 647; Cy5 = Cy5 cyanine dye

Assays:
CoilY-EGFP-TM = assay: Flow cytometry of probe labeling, live U-2 OS cells expressing CoilY-EGFP-TM; format: cell-based, human; conditions: 500 nM probe
Description: (§1) Cells were gated for green fluorescence and analyzed for labeling with CoilY-AF647 (A) or CoilZ-AF647 (B). Transfected cells expressed CoilZ-EGFP-TM (green), CoilY-EGFP-TM (blue), or untagged EGFP-TM (gray). Values in bold indicate the median AF647 fluorescence for each cell population.
(§2) The in vitro results were translated to living cells. Flow cytometry was used to evaluate protein labeling in live human osteosarcoma (U-2 OS) cells expressing CoilZ-EGFP-TM, CoilY-EGFP-TM, or untagged EGFP-TM (FIG. 11). Cells were treated with 500 nM AF647-conjugated probe peptide before analysis, and we gated for EGFP-expressing cells. […] Non-specific labeling of untagged EGFP-TM and homodimerization with CoilY-EGFP-TM were minimal for cells exposed to CoilY-AF647. Cells expressing CoilY-EGFP-TM were labeled with CoilZ-AF647, but with only a 4-fold enhancement.

CoilY-EGFP = assay: Fluorescence microscopy labeling of cell-surface CoilY-GFP (CoilY-EGFP); format: cell-based, human; conditions: fluorescence microscopy
Protocol: (§3) Fluorescence microscopy was used to confirm that the VIP Y/Z tag set enabled selective fluorescent labeling of proteins (FIGS. 3A and 3B). CoilZ was expressed by fusion to a cell-surface localized variant of GFP (CoilZ-GFP; pDisplay vector). […] Labeling was rapid (<30 min), target-specific, and live-cell compatible. Homodimerization between a CoilZ probe peptide and CoilZ-GFP was not observed. Cells expressing untagged GFP were not labeled with the CoilY probe peptide. CoilY was also expressed fused to the cell surface localized GFP and visualized using a CoilZ-AF647 probe peptide (FIG. 3B). No homodimerization of CoilY was observed, and the labeling was specific.
The CoilY/CoilZ tag set is bidirectional—either CoilZ or CoilY can serve as the probe peptide. CoilY-EGFP was expressed on the surface of U2OS cells and labeled with CoilZ-AF647. Protein labeling was rapid (<30 min) and specific; non-specific labeling of untagged EGFP was not observed. Homodimerization was not observed for either CoilZ-AF647 with CoilZ-EGFP or CoilY-AF647 with CoilY-EGFP (FIG. 3B).
(§4) The CoilY/CoilZ tag set is also compatible with live-cell imaging. CoilZ-EGFP was contacted with CoilY-AF647 in live U2OS cells. […] Homodimerization was not observed for CoilY-EGFP incubated with CoilY-AF647. Non-specific labeling of untagged GFP was not observed (FIG. 26). Cells internalize labeled targets over time. CoilZ-GFP and CoilY-AF647 co-localization was observed on the surface and in endocytic vesicles due to rapid internalization, and AF647 signal accumulated inside cells during a 40 min. long incubation at room temperature (FIG. 12).

untagged EGFP-TM = assay: Flow cytometry of probe labeling, live U-2 OS cells expressing untagged EGFP-TM; format: cell-based, human; conditions: 500 nM probe
Protocol: as §2
Protein labeling was assessed as a function of CoilY-AF647 concentration (FIG. 25). Live cells expressing CoilZ-EGFP-TM or untagged EGFP-TM were treated with a range of CoilY-AF647 concentrations (50 nM to 1000 nM for 30 min at room temperature). […] Cells had 21- to 44-fold higher median fluorescence compared to cells expressing untagged protein. Treatment with 300 nM AF647-CoilY gave optimal labeling, with 98% of cells labeled and a 35-fold increase in AF647 fluorescence. Treatment with an excess of probe peptide (i.e., 1000 nM) enhanced the AF647 signal, but at the cost of a small increase in non-specific labeling.

CoilZ-EGFP-TM = assay: Flow cytometry of probe labeling, live U-2 OS cells expressing CoilZ-EGFP-TM; format: cell-based, human
Description: as §1
FIGS. 25A and 25B provide flow analysis of cells treated with CoilY-AF647. In FIG. 25A U-2 OS cells were transfected with EGFP-TM or CoilZ-EGFP-TM and treated with increasing concentrations of CoilY-AF647. Single, live, green fluorescent cells expressing untagged (left) or tagged (right) EGFP-TM were counted and analyzed for labeling without probe peptide (0 nM) or with CoilY-AF647 (50, 100, 300, 500, 750, or 1000 nM). Values within each histogram indicate the median AF647 fluorescence for each cell population. Data analyzed included between 26,000 and 35,000 live, singlet GFP+ cells.
The in vitro results were translated to living cells. Flow cytometry was used to evaluate protein labeling in live human osteosarcoma (U-2 OS) cells expressing CoilZ-EGFP-TM, CoilY-EGFP-TM, or untagged EGFP-TM (FIG. 11). […]
Protein labeling was assessed as a function of CoilY-AF647 concentration (FIG. 25). […] Cells had 21- to 44-fold higher median fluorescence compared to cells expressing untagged protein. Treatment with 300 nM AF647-CoilY gave optimal labeling, with 98% of cells labeled and a 35-fold increase in AF647 fluorescence. […]

CoilZ-EGFP = assay: Fluorescence microscopy labeling of cell-surface CoilZ-GFP (CoilZ-EGFP); format: cell-based, human
Protocol: as §3
(§5) It was next confirmed that the VIP Y/Z tag set could be used in two-target imaging in fixed cells (FIGS. 5B and 13). A combination of cell lines singly-transfected with mCherry, GFP, CoilY-mCherry, or CoilZ-GFP was used, as illustrated in FIG. 9. […] Then we labeled two tagged FPs in one sample using a mixed population of cells expressing either CoilY-mCherry or CoilZ-GFP.
(§6) The disclosed methods were tested in transfected human osteosarcoma cells (U-2 OS). A pDisplay vector was used to target CoilZ-EGFP and untagged EGFP to the cell surface. This construct includes a C-terminal fusion to the transmembrane domain of the platelet derived growth factor receptor. As expected, both CoilZ-EGFP and untagged EGFP localized to the cell surface, and green fluorescence was observed within 24 h of transfection. Then the cells were blocked with 6% BSA and 10% FBS for 30 minutes at 37° C. and then contacted with an AF647-conjugated CoilY probe (CoilY-AF647), 30 min at 4° C. Cells were fixed before imaging by confocal fluorescence microscopy. The probe peptides are membrane impermeant; only cell-surface EGFP was accessible to CoilY-AF647 for labeling. Colocalization of green fluorescent CoilZ-EGFP with CoilY-AF647 was observed.
as §4
The VIPY/Z tag set can be used to label multiple protein targets simultaneously. Cells expressing CoilY-mCherry were combined with those expressing CoilZ-EGFP-pDisplay (FIG. 9). This mixed cell population, as well as unmixed CoilZ-GFP, CoilY-mCherry, and untagged controls, were plated for imaging. […] Fluorescence was detected by confocal fluorescence imaging. […]

CoilY-mCherry [1] = assay: Two-target fluorescence imaging, cells expressing CoilY-mCherry; format: cell-based; conditions: fluorescence microscopy
Description: as §5
The VIPY/Z tag set can be used to label multiple protein targets simultaneously. Cells expressing CoilY-mCherry were combined with those expressing CoilZ-EGFP-pDisplay (FIG. 9). This mixed cell population, as well as unmixed CoilZ-GFP, CoilY-mCherry, and untagged controls, were plated for imaging. After blocking for 30 minutes at 37° C. with 6% BSA, 10% FBS, cells were treated at 4° C. with 500 nM CoilZ-biotin for 15 min and then 500 nM CoilY-AF647 for 15 min. […] Cells were then fixed, blocked for 1 hour with 6% BSA, 10% FBS and treated with Qdot565-conjugated streptavidin in order to label CoilZ-biotin. Fluorescence was detected by confocal fluorescence imaging. […] So the CoilY/Z tag set can be used to image up to four proteins at once.

[2] = system: untagged GFP/EGFP and mCherry; assay: Fluorescence microscopy, cells expressing untagged fluorescent proteins; format: cell-based, human
Protocol: as §3, §5, §6
The CoilY/CoilZ tag set is bidirectional—either CoilZ or CoilY can serve as the probe peptide. CoilY-EGFP was expressed on the surface of U2OS cells and labeled with CoilZ-AF647. […]

untagged TfR1 = target: T1, untagged TfR1 (Homo sapiens, UniProt P02786); assay: CoilR probe labeling of CHO TRVb cells expressing untagged TfR1; format: cell-based; conditions: labeled at 4° C.
T1 construct: expressed in transfected cells; host or cells: CHO TRVb
T1 sequence (P02786 whole entry): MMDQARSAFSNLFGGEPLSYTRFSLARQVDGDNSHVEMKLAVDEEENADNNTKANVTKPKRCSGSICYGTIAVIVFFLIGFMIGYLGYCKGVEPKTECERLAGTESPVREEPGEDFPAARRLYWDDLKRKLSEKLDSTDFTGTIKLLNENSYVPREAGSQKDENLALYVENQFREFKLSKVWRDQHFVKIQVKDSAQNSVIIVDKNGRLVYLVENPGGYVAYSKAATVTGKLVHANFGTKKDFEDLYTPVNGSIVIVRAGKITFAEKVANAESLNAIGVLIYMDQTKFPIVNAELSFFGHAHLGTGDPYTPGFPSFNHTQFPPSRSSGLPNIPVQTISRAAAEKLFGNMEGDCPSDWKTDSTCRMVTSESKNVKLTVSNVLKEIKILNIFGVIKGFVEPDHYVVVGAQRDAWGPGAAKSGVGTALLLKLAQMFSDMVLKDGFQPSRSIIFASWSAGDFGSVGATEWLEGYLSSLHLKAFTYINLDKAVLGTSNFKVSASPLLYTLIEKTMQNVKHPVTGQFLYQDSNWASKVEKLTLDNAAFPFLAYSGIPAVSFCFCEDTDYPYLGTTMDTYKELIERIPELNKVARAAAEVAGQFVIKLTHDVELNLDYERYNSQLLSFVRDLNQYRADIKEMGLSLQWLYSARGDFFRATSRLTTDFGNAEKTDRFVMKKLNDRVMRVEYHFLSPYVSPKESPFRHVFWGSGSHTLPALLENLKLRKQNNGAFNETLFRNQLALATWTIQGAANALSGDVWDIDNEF

[3] = system: untagged mEmerald constructs; assay: VIPER labeling of fixed, permeabilized U-2 OS cells, untagged constructs; format: cell-based; conditions: 100 nM probe, same acquisition settings
Protocol: The CoilE and CoilR peptides were assessed for their ability to label intracellular structures without perturbing normal trafficking and distribution of the tagged proteins. U-2 OS cells were transfected with mEmerald-actin-C18, mEmerald-CoilE-actin-C18, H2B-6-mEmerald, H2B-6-CoilE-mEmerald, Mito-7-mEmerald, and Mito-7-CoilE-mEmerald and fixed with 4% PFA 24 hours after transfection. Cells were then lightly permeabilized and then labeled with 100 nM CoilR-Cy5 in a blocking buffer. Cells were fixed and imaged using with line-scanning confocal microscope. […] VIPER labeling was specific, given by the colocalization of features between the VIPER(Cy5) and mEmerald signal.

His6-CoilY-mCherry = assay: Detection limit comparison on PVDF membrane (peptide vs immunolabeling); format: binding; conditions: serial dilutions 400 ng to 0.8 ng
Protocol: FIG. 10 is a detection limit comparison between peptide and immunolabeling. Serial dilutions of CoilY-mCherry (400 ng to 0.8 ng) were run on two identical SDS-PAGE gels before transfer to a PVDF membrane. The first membrane (top) was treated with CoilZ-fluorescein (CoilZ-FL) and imaged (ex 475/42 nm; em 537/35 nm). The second membrane (bottom) was labeled using an AF488-conjugated anti-His antibody “AF488-His” (QIAGEN, product number 35310) and imaged (475/42 nm excitation, 537/35 nm emission).
The disclosed method is a sensitive alternative to fluorescent immunoblotting. Purified His6-CoilY-mCherry was generated and the sensitivity of detection of the His6-CoilY-mCherry using our CoilZ-fluorescein was compared to that of an AF488-labeled anti-His antibody from Qiagen. CoilZ-fluorescein could detect as little as 3 ng of His6-CoilY-mCherry, while the antibody required 8-fold more target protein (FIG. 10).
Specifically, purified His6-mCherry and His6-CoilY-mCherry were loaded on a 10% SDS-PAGE gel for separation. Electrophoresis occurred at 165 V for 1 h. […]
Decreasing quantities of purified CoilY-mCherry (400 ng to 0.8 ng) were resolved by SDS-PAGE and transferred to a PVDF membrane. […] CoilY-mCherry was detected by blotting with anti-pentahistidine mouse antibody conjugated to AlexaFluor488 (1:5000, QIAGEN; product number 35310). […]

CoilY-mCherry [4] = assay: SDS-PAGE/PVDF membrane labeling of transfected HEK293FT lysates, CoilY-mCherry; format: binding; conditions: cell lysates, SDS-PAGE, PVDF membrane
Protocol: The CoilY and CoilZ pair could be used to label two protein targets simultaneously. Transfected HEK293FT cell lysates from cells expressing mCherry, CoilY-mCherry, EGFP, or CoilZ-EGFP were resolved by SDS-PAGE and transferred to a PVDF membrane. The membrane was incubated sequentially with CoilZ-fluorescein and CoilY-rhodamine before imaging. GFP and mCherry fluorescence was not preserved due to SDS-PAGE protein denaturation.
(§7) A protein gel-based assay was optimized for analyzing VIP tags in vitro. Cell lysates were made from cells transfected with mCherry, CoilY-mCherry, GFP, or CoilZ-GFP, resolved by SDS-PAGE, and transferred to a membrane. GFP and mCherry fluorescence were not preserved in this experiment. The membrane was then contacted with CoilZ-fluorescein and CoilY-rhodamine before imaging. […] The probe peptides were specific for each tagged protein, and this single pair enabled specific and selective protein tagging of two distinct targets. In addition both the VIP E/R and VIP Y/Z tag sets could be used concurrently to label two recombinant proteins (DHFR and mCherry) without crosstalk (FIG. 23).

[5] = system: untagged mCherry and DHFR; assay: SDS-PAGE/PVDF membrane labeling, untagged proteins; format: binding; conditions: lysates and purified proteins, PVDF membrane
Protocol: Crude lysates (lys.) and purified proteins (serial dilutions) were resolved by SDS-PAGE. Lysates were prepared from HERK 293FT cells transfected with mCherry, CoilY-mCherry, DHFR, and CoilE-DHFR. The protein gel was transferred to a PVDF membrane and then incubated with CoilZ-Fluorescein and CoilR-rhodamine. After washing, the membrane was imaged to detect VIPER labeling of DHFR (red) and VIP Y/Z labeling of mCherry (green). Untagged proteins were not labeled by either CoilR-rhodamine or CoilZ-fluorescein.
as §7

B1: CoilY-AF647: CoilY probe peptide conjugated to AlexaFluor 647 (conjugate)
peptide: MGSSNTVKELKNYIQELEERNAELKNLKEHLKFAKAELEFELAAHKFEGGGAAAC(AF647)LGKLAAALEHHHHHH
modifications: not fully specified
CoilY-EGFP-TM
  homodimerization with CoilY-EGFP-TM: minimal
CoilY-EGFP
  homodimerization of CoilY probe with CoilY-GFP/EGFP: not observed
Untagged EGFP-TM
  non-specific labeling of untagged EGFP-TM: minimal
CoilZ-EGFP-TM; 300 nM probe
  cells labeled: 98%
CoilZ-EGFP-TM; 500 nM probe, live U-2 OS, gated for EGFP
  enhancement of protein labeling (AF647 fluorescence): greater than 40 fold
CoilZ-EGFP; cell-surface CoilZ-GFP/EGFP, live-cell compatible
  labeling time (rapid): < 30 min
CoilZ-EGFP; fluorescence microscopy
  labeling of CoilZ-GFP/EGFP (specificity, colocalization): target-specific; also recorded: labeled; also recorded: Colocalization; also recorded: specifically label
CoilY-mCherry [1]
  homodimerization / cross-reactivity of CoilY probe with CoilY-mCherry: not observed; also recorded: no cross-reactivity
[2]
  non-specific labeling of untagged fluorescent proteins: did not interact; also recorded: No CoilY-AF647 labeling was detected; also recorded: not observed

B2: CoilR-Cy5: CoilR probe peptide conjugated to Cy5 (conjugate)
peptide: MGGSLEIRAAFLRQRNTALRTEVAELEQEVQRLENEVSQYETRYGPLGGGAAALGC(Cy5)LAAALEHHHHHH
Untagged TfR1
  labeling of cells expressing untagged TfR1: no CoilR-Cy5 signal; also recorded: showed now labeling
[3]
  Cy5 signal in cells expressing untagged mEmerald constructs: no significant Cy5 signal

B3: CoilZ-fluorescein: green fluorescent CoilZ probe peptide, maleimide conjugate (conjugate)
peptide: MGSSQKVAQLKNRVAYKLKENAKLENIVARLENDNANLEKDIANLEKDIANLERDVARGGGAAACLGKLAAALEHHHHHH
His6-CoilY-mCherry
  least amount of His6-CoilY-mCherry detected: 3 ng
CoilY-mCherry [4]
  probe peptide binding to CoilY-mCherry on membrane: specific coiled-coil heterodimer formation could be detected; also recorded: Probe peptide binding was detected
[5]
  labeling of untagged proteins on membrane: not labeled
